From the supplement of paper PMC10567573

B1: SLC19A2 (parent)
chain: FHHIPSTCQRVNGIKVQNGGIVTD
B2: C2orf65 (parent)
chain: QLDWDELETNQQHFHALCHSLLVS

Variants of: B1
Test: protein stability index of a GFP-peptide fusion (GPS, HEK-293T) (PSI 1-6); higher = more stable
Conditions: c terminus: a fixed tail appended
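Note: lentivirally expressed fusions sorted by FACS into six bins by GFP to DsRed ratio, PSI derived from sequencing read proportions per bin multiplied by bin number.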

Variant	protein stability index
FHHIPSHCQRVNGIKVQNGGIVTD	2.3
FHHIPSGCQRVNGIKVQNGGIVTD	1.57
FHHIPSLCQRVNGIKVQNGGIVTD	2.59
FHHIPSQCQRVNGIKVQNGGIVTD	1.83
FHHIPSACQRVNGIKVQNGGIVTD	1.39
FHHIPSTCQRVNGIKVQNAGIVTD	1.65
FHHIPSTCQRVNGIKVQNVGIVTD	2.32
FHHIPSTCQRVNGIKVQNLGIVTD	1.72
FHHIPSTCQRVNGIKVQNHGIVTD	1.59
FHHIPSTCQRVNGIKVQNIGIVTD	3.46
FHHIPSTCQRVNGIKVQNRGIVTD	1.65
NHHIPSTCQRVNGIKVQNGGIVTD	3.25
EHHIPSTCQRVNGIKVQNGGIVTD	4.27
CHHIPSTCQRVNGIKVQNGGIVTD	3.84
SHHIPSTCQRVNGIKVQNGGIVTD	3.48
FHHIPSTCDRVNGIKVQNGGIVTD	1.8
FHHIPSTCERVNGIKVQNGGIVTD	2.29
FHHIPSTCARVNGIKVQNGGIVTD	1.46
FHHIPSTCFRVNGIKVQNGGIVTD	2.35
FHHIPSTCRRVNGIKVQNGGIVTD	1.77
FHHIPSTCQRVNGIKVQNGGKVTD	3.06
FHHIPSTCQRVNGIKVQNGGMVTD	2.03

Variant	protein stability index
FHHIPSTCQRVNGIKVQNGGNVTD	3.07
FHHIPSTCQRVNGIKVQNGGTVTD	2.19
FHHIPSTCQRVNGIKVQNGGHVTD	2.09
FHHIPSTCQRVNGIKVQNGGPVTD	1.6
FHHIPSTCQRVNGIKVQNGGFVTD	1.83
FHHIPSTCQRVNGIKVQNGGYVTD	2.18
FHHIPSTCQRVNGIKVQNGGIKTD	1.77
FHHIPSTCQRVNGIKVQNGGINTD	2.23
FHHIPSTCQRVNGIKVQNGGIDTD	2.42
FHHIPSTCQRVNGIKVQNGGIHTD	2.01
FHHIPSTCQRVNGIKVQNGGILTD	2.2
FHHIPSTCQRVNGIKVQNGGIYTD	1.47
FHHIPSTCQRVNGIKVQNGGIQTD	2.18
FHEIPSTCQRVNGIKVQNGGIVTD	2.53
FHMIPSTCQRVNGIKVQNGGIVTD	2.8
FHQIPSTCQRVNGIKVQNGGIVTD	1.71
FHAIPSTCQRVNGIKVQNGGIVTD	2.22
FHWIPSTCQRVNGIKVQNGGIVTD	2.18
FHHIPSTCQRVNIIKVQNGGIVTD	1.75
FHHIPSTCQRVNMIKVQNGGIVTD	2.08
FHHIPSTCQRVNCIKVQNGGIVTD	1.89
FHHIPSTCQRVNFIKVQNGGIVTD	1.71

Variant	protein stability index
FHHIESTCQRVNGIKVQNGGIVTD	2.83
FHHIDSTCQRVNGIKVQNGGIVTD	2.71
FHHIQSTCQRVNGIKVQNGGIVTD	1.89
FHHITSTCQRVNGIKVQNGGIVTD	2.67
FHHIPSTCQRTNGIKVQNGGIVTD	2.04
FHHIPSTCQRWNGIKVQNGGIVTD	1.44
FHHIPSTCQRKNGIKVQNGGIVTD	2.11
FHHIPSTCQRHNGIKVQNGGIVTD	1.83
FHHIPSTCQRRNGIKVQNGGIVTD	3.19
FHHIPSTCQRDNGIKVQNGGIVTD	2.42
FPHIPSTCQRVNGIKVQNGGIVTD	3.26
FKHIPSTCQRVNGIKVQNGGIVTD	2.52
FMHIPSTCQRVNGIKVQNGGIVTD	2.47
FNHIPSTCQRVNGIKVQNGGIVTD	3.73
FHHIPSTCQRVAGIKVQNGGIVTD	1.84
FHHIPSTCQRVLGIKVQNGGIVTD	2.1
FHHIPSTCQRVQGIKVQNGGIVTD	2.43
FHHIPSTCQRVGGIKVQNGGIVTD	2.07
FHHIPSTCQRVNGIKVQNGGIVCD	2.27
FHHIPSTCQRVNGIKVQNGGIVWD	1.45
FHHIPSTCQRVNGIDVQNGGIVTD	2.57
FHHIPSTCQRVNGIFVQNGGIVTD	2.49

Variant	protein stability index
FHHIPSTCQRVNGIIVQNGGIVTD	2.14
FHHIPSTCQRVNGIAVQNGGIVTD	1.91
FHHIPSTCQRVNGIVVQNGGIVTD	2.14
FHHIPSTCQRVNGISVQNGGIVTD	2.24
FHHIPSTCQRVNGICVQNGGIVTD	2.2
FHHIPSTCQRVNGIQVQNGGIVTD	2.47
FHHIPSTCQRVNGRKVQNGGIVTD	2.18
FHHIPSTCQRVNGEKVQNGGIVTD	2.69
FHHIPSTCQRVNGKKVQNGGIVTD	2.19
FHHIPSTCQRVNGTKVQNGGIVTD	2.17
FHHIPSTCQRVNGWKVQNGGIVTD	2.7
FHHQPSTCQRVNGIKVQNGGIVTD	2.1
FHHGPSTCQRVNGIKVQNGGIVTD	2.48
FHHKPSTCQRVNGIKVQNGGIVTD	1.94
FHHIPSTCQRVNGIKVQNGTIVTD	1.76
FHHIPSTCQRVNGIKVQNGSIVTD	2.34
FHHIPATCQRVNGIKVQNGGIVTD	2.17
FHHIPTTCQRVNGIKVQNGGIVTD	1.6
FHHIPHTCQRVNGIKVQNGGIVTD	2.02
FHHIPKTCQRVNGIKVQNGGIVTD	1.86
FHHIPFTCQRVNGIKVQNGGIVTD	2.69
FHHIPQTCQRVNGIKVQNGGIVTD	2.32

Variant	protein stability index
FHHIPCTCQRVNGIKVQNGGIVTD	2.27
FHHIPSTSQRVNGIKVQNGGIVTD	2.27
FHHIPSTRQRVNGIKVQNGGIVTD	3.48
FHHIPSTNQRVNGIKVQNGGIVTD	2.69
FHHIPSTKQRVNGIKVQNGGIVTD	1.83
FHHIPSTHQRVNGIKVQNGGIVTD	2.13
FHHIPSTLQRVNGIKVQNGGIVTD	2.3
FHHIPSTCQRVNGIKCQNGGIVTD	2.2
FHHIPSTCQRVNGIKWQNGGIVTD	2.14
FHHIPSTCQRVNGIKEQNGGIVTD	1.49
FHHIPSTCQRVNGIKHQNGGIVTD	2.15
FHHIPSTCQRVNGIKVQNGGIVTA	2.16
FHHIPSTCQRVNGIKVQRGGIVTD	2.14
FHHIPSTCQRVNGIKVQIGGIVTD	2.94
FHHIPSTCQRVNGIKVQYGGIVTD	1.63
FHHIPSTCQRVNGIKVQPGGIVTD	2.08
FHHIPSTCQRVNGIKVQKGGIVTD	1.68
FHHIPSTCQRVNGIKVQMGGIVTD	1.98
FHHIPSTCQRVNGIKVNNGGIVTD	2.17
FHHIPSTCQYVNGIKVQNGGIVTD	2.07
FHHIPSTCQWVNGIKVQNGGIVTD	2.97
FHHIPSTCQDVNGIKVQNGGIVTD	2.65

Variants of: B2
Test: as above
Conditions: c terminus: a fixed tail appended

Variant	protein stability index
QLDWDELETNQQHFHALCHWLLVS	1.9
QLDWDELETNQQHFHALCHVLLVS	2.33
QLDWDELETNQQHFHALCHYLLVS	2.05
QLDWDELETNQQHFHALCHSLCVS	2.58
QLDWDELETNQQHFHALCHSLSVS	2.58
QLDWDELETNQQHFHALCHSLIVS	2.95
QLDWDELETNQQHFHALCHSLEVS	3.38
QLDWDELETNQQHFHALCHSLDVS	3.77
QLDWDELETNQQHFHALCHSLFVS	2.21
QLDWDELETNQQHFHALCHSLMVS	3.01
QLDWDELETNQQHFHALCHSLPVS	3.16
QLDWDELETNQQHFHALCHSLKVS	2.37
QLDWDELETNQQHFHALCHSLTVS	3.08
QLDWDELETNQQHFHALCHSLAVS	3.29
QLDWDELETNQQHFHALCHSLRVS	2.96
QLDWDELETNQQHFHALCHSLYVS	2.44
QLDWDELETNQQHFHALCHSLWVS	1.64
QLDWDELETNQQHFHALCHSLNVS	2.69
QLDWDELETNQQHFHALCHSLVVS	2.34
QLDWDELETNQQHFHALCHSLQVS	2.81
QLDWDELETNQQHFHALCHSLHVS	2.69
QLDWDELETNQQHFHALCHSALVS	3.23
QLDWDELETNQQHFHALCHSSLVS	3.09
QLDWDELETNQQHFHALCHSDLVS	3.83
QLDWDELETNQQHFHALCHSELVS	3.87
QLDWDELETNQQHFHALCHSMLVS	2.28

Variant	protein stability index
QLDWDELETNQQHFHALCHSCLVS	1.61
QLDWDELETNQQHFHALCHSVLVS	3.04
QLDWDELETNQQHFHALCHSTLVS	2.93
QLDWDELETNQQHFHALCHSFLVS	2.31
QLDWDELETNQQHFHALCHSPLVS	2.95
QLDWDELETNQQHFHALCHSWLVS	2.22
QLDWDELETNQQHFHALCHSGLVS	3.04
QLDWDELETNQQHFHALCHSILVS	2.06
QLDWDELETNQQHFHALCHSHLVS	2.87
QLDWDELETNQQHFHALCHSQLVS	2.91
QLDWDELETNQQHFHALCHSKLVS	2.94
QLDWDELETNQQHFHALCHSNLVS	3.01
QLDWDELETNQQHFHALCHSYLVS	2.37
QLDWDELETNQQHFHALCHSRLVS	3.15
QLDWDELETNQQHFHALCHSLLVH	2.33
QLDWDELETNQQHFHALCHSLLVY	2.54
QLDWDELETNQQHFHALCHSLLVE	2.11
QLDWDELETNQQHFHALCHSLLVP	2.5
QLDWDELETNQQHFHALCHSLLVI	2.99
QLDWDELETNQQHFHALCHSLLVG	1.78
QLDWDELETNQQHFHALCHSLLVN	2.25
QLDWDELETNQQHFHALCHSLLVR	2.1
QLDWDELETNQQHFHALCHSLLVT	1.89
QLDWDELETNQQHFHALCHSLLVM	2.02
QLDWDELETNQQHFHALCHSLLVV	1.56
QLDWDELETNQQHFHALCHSLLVQ	2.04

Variant	protein stability index
QLDWDELETNQQHFHALCHSLLVK	2.27
QLDWDELETNQQHFHALCHSLLVA	2.11
QLDWDELETNQQHFHALCHSLLVF	1.7
QLDWDELETNQQHFHALCHSLLVW	1.38
QLDWDELETNQQHFHALCHSLLVC	2.18
QLDWDELETNQQHFHALCHSLLVD	3.08
QLDWDELETNQQHFHALCHSLLVL	2.73
QLDWDELETNQQHFHALCHSLLAS	2.68
QLDWDELETNQQHFHALCHSLLHS	2.36
QLDWDELETNQQHFHALCHSLLKS	2.45
QLDWDELETNQQHFHALCHSLLGS	3.26
QLDWDELETNQQHFHALCHSLLNS	2.75
QLDWDELETNQQHFHALCHSLLFS	1.69
QLDWDELETNQQHFHALCHSLLSS	2.63
QLDWDELETNQQHFHALCHSLLCS	2.09
QLDWDELETNQQHFHALCHSLLMS	1.99
QLDWDELETNQQHFHALCHSLLLS	1.92
QLDWDELETNQQHFHALCHSLLQS	2.48
QLDWDELETNQQHFHALCHSLLES	2.68
QLDWDELETNQQHFHALCHSLLWS	1.57
QLDWDELETNQQHFHALCHSLLPS	2.95
QLDWDELETNQQHFHALCHSLLIS	1.96
QLDWDELETNQQHFHALCHSLLDS	3.38
QLDWDELETNQQHFHALCHSLLRS	2.01
QLDWDELETNQQHFHALCHSLLYS	2.27
QLDWDELETNQQHFHALCHSLLTS	2.35
